Experimental findings from US20250340881A1, “PHARMACEUTICAL COMPOSITION FOR TREATING CANCER COMPRISING FOXM1 MUTANT OR FOXM1 SHRNA” (Industry-University Cooperation Foundation Hanyang …, priority 2022, published 2025) are described below.

Positions count from the first letter of the chain named. Numbers in names are those of the source.

Assay [1] has as its system A549 lung cancer cells. Put plainly: Matrigel invasion assay of A549 cells expressing FoxM1 WT or point mutants. Type of assay: cell-based. As to conditions: for invasion of cancer cells (in words): Matrigel invasion assay, A549. The procedure: To observe the effects of the WT, phosphorylation, and non-phosphorylated point mutants of FoxM1 proteins on the invasion of cancer cells, an invasion assay using Matrigel was performed in lung cancer cells A549 expressing these mutants.
Specifically, after completely dissolving Matrigel at 4° C. for 16-20 hours, Matrigel was diluted with cold serum-free RPMI 1640 (4° C.) to 1 mg/ml. 100 μl of Matrigel mixture (1 mg/ml) was added to an […] 24-well insert and solidified in a 37° C. incubator for 12-20 hours. 1×10^5 cells/well of lung cancer cells A549 expressing each WT, phosphorylation, and non-phosphorylated point mutant FoxM1 proteins were diluted in serum-free RPMI 1640 (36° C.) and dispensed onto the insert. 0.5 ml/well of warm RPMI 1640 (10% FBS) at 36° C. was dispensed to the insert. For the positive control group, 0.5 ml of RPMI 1640 (10% FBS) containing 5 ng/ml TGF-β at 36° C. was used. The medium was changed once every 3 days, and the degree of invasion was observed. On the 7th day, when sufficient cancer cell invasion was observed, the medium was removed, washed with 1×PBS, and the cells inside the insert were scraped with a cotton swab and washed with 1×PBS to remove any remaining cells and Matrigel inside the insert. 500 μl of 4% paraformaldehyde was dispensed into the 24 wells with the outer surface of the insert, incubated at room temperature for 5 minutes, washed three times with 1×PBS, and stained with 0.05% crystal violet solution for 5 minutes. After 5 minutes, it was washed five times with 1×PBS and dissolved in DMSO. The degree of staining was determined by measuring the absorbance at 590 nm.
Specifically, Matrigel was completely solved at 4° C. for 16-20 hours and diluted to 1 mg/ml in cold serum free RPMI 1640 (4° C.). 100 μl of Matrigel mixture (1 mg/ml) was added into […] 24-well insert and solidified in a 37° C. incubator for 12-20 hours. A549 lung cancer cells expressing Mock or the experimental group FoxM1 WT protein were dispensed on the solidified Matrigel insert with 1×10^5 cells/well diluted in serum free RPMI 1640 (36° C.), and 0.5 ml/well of 36° C. of warm RPMI 1640 (10% FBS) were dispensed. For the positive control group, 0.5 ml of 36° C. RPMI 1640 (10% FBS) containing 5 ng/ml of TGF-β were dispensed. Then, once in 3 days, the medium was changed, and the level of invasion was observed. […] 500 ul of 4% paraformaldehyde was dispensed into 24 wells where the outer surface of the insert was placed, incubated for 5 minutes at room temperature, washed three times with 1×PBS, and stained with 0.05% crystal-violet solution for 5 minutes. After 5 minutes, they were washed 5 times with 1×PBS, and the degree of staining was dissolved in DMSO, and the wavelength was measured at 590 nm.

The subject of a further assay is lung tissues. The assay can be described thus: CD68 and CD163 immunostaining and immunoblot of lung tissues of injected mice. To be noted: for protein expression of CD68 and CD163, immunoblot: lung tissue lysates. The assay is classed as in vivo. As to the method: Additionally, the increase of macrophages around the tumor was examined by immunoblot using lung tissue lysates. […] Through the results of this study, it could be observed that the non-phosphorylated point mutant had the effect of inhibiting polarization into tumor-associated macrophages.
Furthermore, CD68, a marker for a broad range of macrophages, and CD163, a marker for tumor-associated macrophages, were analyzed in lung tissues of mice using immunostaining. It was determined that the expression of both CD68 and CD163 markers was increased in the lung tissues of mice injected with the FoxM1 WT protein over-expressed cells (FIG. 13D). Through the present results, it could be observed that there was an effect of promoting the polarization of M2 tumor-associated macrophages in lung cancer cells expressing the FoxM1 WT protein.
On the technique in general: In western blotting, separated proteins are transferred to a membrane and probed.

A further assay deals with A549 cells. The assay can be described thus: PD-L1 (CD274) mRNA in A549 cells by real-time PCR. The assay is classed as cell-based. The procedure:
To examine the mRNA expression levels of PD-1 and PD-L1, which are involved in solid tumor immune evasion, in THP-1 cells and the cells expressing the FoxM1 phosphorylated point mutant, the expression of PD-1 (CD279) mRNA, an immune evasion factor, was measured by qRT-PCR in THP-1 monocytes co-cultured with A549^S25E cells for 48 h (FIG. 7B). It was observed that the expression of mRNA of PD-L1 (CD274), an immune evasion factor, increased by 2 folds in the A549^S25E cells expressing the phosphorylated point mutant compared to the control group.
Background: Quantitative PCR measures a nucleic acid by following its amplification.

Assay [2] relates to A549 lung cancer cells. Put plainly: EMT marker expression (immunoblot, real-time PCR) in A549 cells expressing FoxM1 WT or mutants. The assay is classed as cell-based. As to conditions: A549 cells expressing the mutant. The text has this:
To establish a stabilized cell line expressing WT, phosphorylation, and non-phosphorylated point mutants of FoxM1 in lung cancer cells, A549 cells were first infected with pLVX-Tet3G expressing lentivirus, and the infected cells were selected by treating with G418 for 5 days. The selected A549Tet3G cells were infected with lentiviruses expressing WT and phosphorylated point mutants (S25E, S361E, S715E) and non-phosphorylated point mutants (S25A, S361A, S715A) of FoxM1, and then treated with puromycin for 48 hours to establish a stabilized cell line. The established cells were treated with 2 μg/ml of doxycycline to induce expression of WT, phosphorylation, and non-phosphorylated point mutants of FoxM1, and the mRNA and protein expression levels of each FoxM1 point mutant were determined to confirm whether they were well expressed. As shown in FIG. 4A and FIG. 4B, it was confirmed that the WT and each point mutant form of FoxM1 were well expressed through mRNA and protein expression levels. It was observed that the expression levels of N-cadherin and vimentin were higher, and the expression levels of E-cadherin were lower in lung cancer cells expressing the phosphorylated form of FoxM1, specifically, phosphorylated at the phosphorylation site S25, compared to the cells expressing the non-phosphorylated form of FoxM1. In addition, when it was examined whether the expression of these phosphorylation and non-phosphorylated point mutants of FoxM1 affected cell proliferation, it was observed that it had no significant effect on cell proliferation (FIG. 4C).
To establish a stabilized cell line expressing FoxM1 WT in A549 lung cancer cells, first, pLVX-Tet3G expressing lentivirus was infected into cells, and the infected cells were selected by treating 500 μg/ml of G418 for 5 days. The selected A549^Tet3G cells were infected with lentiviruses expressing FoxM1 WT or Mock, and the stabilized cell lines were established by treating with 2 μg/ml of puromycin for 48 hours. After inducing the expression of FoxM1 WT by treating the established cells with 2 μg/ml of doxycycline, the protein expression was observed by immunoblot.

B1: S25E: FoxM1 phosphorylated point mutant of the S25 residue, expressed by lentivirus in A549 cells (protein, listed as Homo sapiens)
chain: MKTSPRRPLILKRRRLPLPVQNAPEETSEEEPKRSPAQQESNQAEASKEVAESNSCKFPAGIKIINHPTMPNTQVVAIPNNANIHSIITALTAKGKESGSSGPNKFILISCGGAPTQPPGLRPQTQTSYDAKRTEVTLETLGPKPAARDVNLPRPPGALCEQKRETCDGEAAGCTINNSLSNIQWLRKMSSDGLGSRSIKQEMEEKENCHLEQRQVKVEEPSRPSASWQNSVSERPPYSYMAMIQFAINSTERKRMTLKDIYTWIEDHFPYFKHIAKPGWKNSIRHNLSLHDMFVRETSANGKVSFWTIHPSANRYLTLDQVFKQQQKRPNPELRRNMTIKTELPLGARRKMKPLLPRVSSYLVPIQFPVNQSLVLQPSVKVPLPLAASLMSSELARHSKRVRIAPKVLLAEEGIAPLSSAGPGKEEKLLFGEGFSPLLPVQTIKEEEIQPGEEMPHLARPIKVESPPLEEWPSPAPSFKEESSHSWEDSSQSPTPRPKKSYSGLRSPTRCVSEMLVIQHRERRERSRSRRKQHLLPPCVDEPELLFSEGPSTSRWAAELPFPADSSDPASQLSYSQEVGGPFKTPIKETLPISSTPSKSVLPRTPESWRLTPPAKVGGLDFSPVQTSQGASDPLPDPLGLMDLSTTPLQSAPPLESPQRLLSSEPLDLISVPFGNSSPSDIDVPKPGSPEPQVSGLAANRSLTEGLVLDTMNDSLSKILLDISFPGLDEDPLGPDNINWSQFIPELQ
Consider B1, for which the “invasion of cancer cells (in words)” value in the assay with A549 lung cancer cells [1] was “highest cancer cell invasion”. The “absorbance value at 590 nm (invasion) compared to the control group” value with A549 lung cancer cells [1] (Matrigel, 7th day, control set to 1) is reported as about 40 times. In addition, the “protein expression of CD68 and CD163, immunoblot” value in the assay on lung tissues is “significantly higher”. The “expression of CD68 and CD163 markers, immunostaining” value with lung tissues (lung tissues of injected mice) is reported as “approximately 3 times”. In addition, in the assay on A549 cells (A549 cells expressing the protein), the “mRNA expression of PD-L1 (CD274) compared to the control group” value is given as 2 folds. In addition, the “expression of N-cadherin (CDH2), qRT-PCR and Western blot” value with A549 lung cancer cells [2] is “increased”.

B2: S25A: FoxM1 protein with Ser25 substituted with alanine, non-phosphorylated point mutant, expressed by lentivirus in A549 cells (protein)
chain: B1 chain with E25A
modifications: left off: a dimerising Fc or GST
notes: FoxM1 protein with Ser25 substituted with alanine, non-phosphorylated point mutant, expressed by lentivirus in A549 cells
As for B2, the “invasion of cancer cells (in words)” value in the assay with A549 lung cancer cells [1] (listed as FoxM1 non-phosphorylated point mutant) was “lower relative absorbance”; with A549 lung cancer cells [1] (listed as non-phosphorylated point mutant protein of FoxM1), “reduced”. For the same molecule, the “protein expression of CD68 and CD163, immunoblot” value with lung tissues is on record as “lower”. The “expression of CD68 and CD163 markers, immunostaining (in words)” value in the assay on lung tissues (lung tissues of injected mice) is given as “significantly low”. For the same molecule, in the assay on A549 cells (A549 cells expressing the mutant), the “mRNA (CD274) expression of PD-L1, reduction compared to the control group” value is listed as “about 50%”. Besides, the “expression of N-cadherin (CDH2), qRT-PCR and Western blot” value in the assay on A549 lung cancer cells [2] was “reduced and inhibited”.
